# ± gives the uncertainty stated by the source.
# B1: Homeobox protein cut-like 1, residues 548 to 629; numbered along this chain, P39880 (parent)
# chain: GEEMDTAEIARQVKEQLIKHNIGQRIFGHYVLGLSQGSVSEILARPKPWNKLTVRGKEPFHKMKQFLSDEQNILALRSIQGR
# Variants of: B1
# Experiment: abundance fitness (aPCA) (normalised: wild type 0, dead -1); higher = more abundant; growth selection in yeast, the domain comes from the species named
# Details: Homo sapiens
row,Variant,abundance fitness
1,GEEMDTAEIARQVKEQDIKHNIGQRIFGHYVLGLSQGSVSEILARPKPWNKLTVRGKEPFHKMKQFLSDEQNILALRSIQGR,-0.774 ± 0.093
2,GEEMDTAEIARQVKEQEIKHNIGQRIFGHYVLGLSQGSVSEILARPKPWNKLTVRGKEPFHKMKQFLSDEQNILALRSIQGR,-0.613 ± 0.039
3,GEEMDTAEIARQVKEQFIKHNIGQRIFGHYVLGLSQGSVSEILARPKPWNKLTVRGKEPFHKMKQFLSDEQNILALRSIQGR,-0.808 ± 0.18
4,GEEMDTAEIARQVKEQHIKHNIGQRIFGHYVLGLSQGSVSEILARPKPWNKLTVRGKEPFHKMKQFLSDEQNILALRSIQGR,-0.939 ± 0.27
5,GEEMDTAEIARQVKEQIIKHNIGQRIFGHYVLGLSQGSVSEILARPKPWNKLTVRGKEPFHKMKQFLSDEQNILALRSIQGR,-0.358 ± 0.094
6,GEEMDTAEIARQVKEQMIKHNIGQRIFGHYVLGLSQGSVSEILARPKPWNKLTVRGKEPFHKMKQFLSDEQNILALRSIQGR,-0.405 ± 0.046
7,GEEMDTAEIARQVKEQNIKHNIGQRIFGHYVLGLSQGSVSEILARPKPWNKLTVRGKEPFHKMKQFLSDEQNILALRSIQGR,-0.696 ± 0.12
8,GEEMDTAEIARQVKEQPIKHNIGQRIFGHYVLGLSQGSVSEILARPKPWNKLTVRGKEPFHKMKQFLSDEQNILALRSIQGR,-0.538 ± 0.051
9,GEEMDTAEIARQVKEQQIKHNIGQRIFGHYVLGLSQGSVSEILARPKPWNKLTVRGKEPFHKMKQFLSDEQNILALRSIQGR,-0.612 ± 0.058
10,GEEMDTAEIARQVKEQRIKHNIGQRIFGHYVLGLSQGSVSEILARPKPWNKLTVRGKEPFHKMKQFLSDEQNILALRSIQGR,-0.609 ± 0.031
11,GEEMDTAEIARQVKEQSIKHNIGQRIFGHYVLGLSQGSVSEILARPKPWNKLTVRGKEPFHKMKQFLSDEQNILALRSIQGR,-0.635 ± 0.045
12,GEEMDTAEIARQVKEQTIKHNIGQRIFGHYVLGLSQGSVSEILARPKPWNKLTVRGKEPFHKMKQFLSDEQNILALRSIQGR,-0.518 ± 0.057
13,GEEMDTAEIARQVKEQVIKHNIGQRIFGHYVLGLSQGSVSEILARPKPWNKLTVRGKEPFHKMKQFLSDEQNILALRSIQGR,-0.665 ± 0.038
14,GEEMDTAEIARQVKEQWIKHNIGQRIFGHYVLGLSQGSVSEILARPKPWNKLTVRGKEPFHKMKQFLSDEQNILALRSIQGR,-0.808 ± 0.05
15,GEEMDTAEIARQVKEQYIKHNIGQRIFGHYVLGLSQGSVSEILARPKPWNKLTVRGKEPFHKMKQFLSDEQNILALRSIQGR,-0.842 ± 0.21
16,GEEMDTAEIARQVKEQLAKHNIGQRIFGHYVLGLSQGSVSEILARPKPWNKLTVRGKEPFHKMKQFLSDEQNILALRSIQGR,0.007 ± 0.026
17,GEEMDTAEIARQVKEQLCKHNIGQRIFGHYVLGLSQGSVSEILARPKPWNKLTVRGKEPFHKMKQFLSDEQNILALRSIQGR,0.014 ± 0.045
18,GEEMDTAEIARQVKEQLEKHNIGQRIFGHYVLGLSQGSVSEILARPKPWNKLTVRGKEPFHKMKQFLSDEQNILALRSIQGR,0.064 ± 0.031
19,GEEMDTAEIARQVKEQLFKHNIGQRIFGHYVLGLSQGSVSEILARPKPWNKLTVRGKEPFHKMKQFLSDEQNILALRSIQGR,0.085 ± 0.065
20,GEEMDTAEIARQVKEQLGKHNIGQRIFGHYVLGLSQGSVSEILARPKPWNKLTVRGKEPFHKMKQFLSDEQNILALRSIQGR,-0.105 ± 0.023
21,GEEMDTAEIARQVKEQLHKHNIGQRIFGHYVLGLSQGSVSEILARPKPWNKLTVRGKEPFHKMKQFLSDEQNILALRSIQGR,-0.052 ± 0.072
22,GEEMDTAEIARQVKEQLKKHNIGQRIFGHYVLGLSQGSVSEILARPKPWNKLTVRGKEPFHKMKQFLSDEQNILALRSIQGR,0.075 ± 0.038
23,GEEMDTAEIARQVKEQLLKHNIGQRIFGHYVLGLSQGSVSEILARPKPWNKLTVRGKEPFHKMKQFLSDEQNILALRSIQGR,-0.031 ± 0.032

row,Variant,abundance fitness
1,GEEMDTAEIARQVKEQLMKHNIGQRIFGHYVLGLSQGSVSEILARPKPWNKLTVRGKEPFHKMKQFLSDEQNILALRSIQGR,-0.005 ± 0.034
2,GEEMDTAEIARQVKEQLNKHNIGQRIFGHYVLGLSQGSVSEILARPKPWNKLTVRGKEPFHKMKQFLSDEQNILALRSIQGR,0.012 ± 0.055
3,GEEMDTAEIARQVKEQLQKHNIGQRIFGHYVLGLSQGSVSEILARPKPWNKLTVRGKEPFHKMKQFLSDEQNILALRSIQGR,0.084 ± 0.032
4,GEEMDTAEIARQVKEQLSKHNIGQRIFGHYVLGLSQGSVSEILARPKPWNKLTVRGKEPFHKMKQFLSDEQNILALRSIQGR,0.014 ± 0.032
5,GEEMDTAEIARQVKEQLVKHNIGQRIFGHYVLGLSQGSVSEILARPKPWNKLTVRGKEPFHKMKQFLSDEQNILALRSIQGR,0 ± 0.029
6,GEEMDTAEIARQVKEQLWKHNIGQRIFGHYVLGLSQGSVSEILARPKPWNKLTVRGKEPFHKMKQFLSDEQNILALRSIQGR,-0.13 ± 0.03
7,GEEMDTAEIARQVKEQLYKHNIGQRIFGHYVLGLSQGSVSEILARPKPWNKLTVRGKEPFHKMKQFLSDEQNILALRSIQGR,0.008 ± 0.064
8,GEEMDTAEIARQVKEQLIAHNIGQRIFGHYVLGLSQGSVSEILARPKPWNKLTVRGKEPFHKMKQFLSDEQNILALRSIQGR,-0.171 ± 0.026
9,GEEMDTAEIARQVKEQLICHNIGQRIFGHYVLGLSQGSVSEILARPKPWNKLTVRGKEPFHKMKQFLSDEQNILALRSIQGR,-0.363 ± 0.053
10,GEEMDTAEIARQVKEQLIDHNIGQRIFGHYVLGLSQGSVSEILARPKPWNKLTVRGKEPFHKMKQFLSDEQNILALRSIQGR,-0.344 ± 0.062
11,GEEMDTAEIARQVKEQLIEHNIGQRIFGHYVLGLSQGSVSEILARPKPWNKLTVRGKEPFHKMKQFLSDEQNILALRSIQGR,-0.26 ± 0.03
12,GEEMDTAEIARQVKEQLIFHNIGQRIFGHYVLGLSQGSVSEILARPKPWNKLTVRGKEPFHKMKQFLSDEQNILALRSIQGR,-0.187 ± 0.087
13,GEEMDTAEIARQVKEQLIGHNIGQRIFGHYVLGLSQGSVSEILARPKPWNKLTVRGKEPFHKMKQFLSDEQNILALRSIQGR,-0.513 ± 0.024
14,GEEMDTAEIARQVKEQLIHHNIGQRIFGHYVLGLSQGSVSEILARPKPWNKLTVRGKEPFHKMKQFLSDEQNILALRSIQGR,0.029 ± 0.11
15,GEEMDTAEIARQVKEQLIIHNIGQRIFGHYVLGLSQGSVSEILARPKPWNKLTVRGKEPFHKMKQFLSDEQNILALRSIQGR,-0.244 ± 0.095
16,GEEMDTAEIARQVKEQLILHNIGQRIFGHYVLGLSQGSVSEILARPKPWNKLTVRGKEPFHKMKQFLSDEQNILALRSIQGR,-0.201 ± 0.034
17,GEEMDTAEIARQVKEQLIMHNIGQRIFGHYVLGLSQGSVSEILARPKPWNKLTVRGKEPFHKMKQFLSDEQNILALRSIQGR,-0.293 ± 0.041
18,GEEMDTAEIARQVKEQLINHNIGQRIFGHYVLGLSQGSVSEILARPKPWNKLTVRGKEPFHKMKQFLSDEQNILALRSIQGR,-0.216 ± 0.07
19,GEEMDTAEIARQVKEQLIPHNIGQRIFGHYVLGLSQGSVSEILARPKPWNKLTVRGKEPFHKMKQFLSDEQNILALRSIQGR,-0.763 ± 0.087
20,GEEMDTAEIARQVKEQLIQHNIGQRIFGHYVLGLSQGSVSEILARPKPWNKLTVRGKEPFHKMKQFLSDEQNILALRSIQGR,-0.18 ± 0.04
21,GEEMDTAEIARQVKEQLIRHNIGQRIFGHYVLGLSQGSVSEILARPKPWNKLTVRGKEPFHKMKQFLSDEQNILALRSIQGR,-0.117 ± 0.024
22,GEEMDTAEIARQVKEQLIVHNIGQRIFGHYVLGLSQGSVSEILARPKPWNKLTVRGKEPFHKMKQFLSDEQNILALRSIQGR,-0.271 ± 0.028
23,GEEMDTAEIARQVKEQLIWHNIGQRIFGHYVLGLSQGSVSEILARPKPWNKLTVRGKEPFHKMKQFLSDEQNILALRSIQGR,-0.618 ± 0.038

row,Variant,abundance fitness
1,GEEMDTAEIARQVKEQLIYHNIGQRIFGHYVLGLSQGSVSEILARPKPWNKLTVRGKEPFHKMKQFLSDEQNILALRSIQGR,-0.242 ± 0.12
2,GEEMDTAEIARQVKEQLIKANIGQRIFGHYVLGLSQGSVSEILARPKPWNKLTVRGKEPFHKMKQFLSDEQNILALRSIQGR,-0.348 ± 0.031
3,GEEMDTAEIARQVKEQLIKCNIGQRIFGHYVLGLSQGSVSEILARPKPWNKLTVRGKEPFHKMKQFLSDEQNILALRSIQGR,-0.466 ± 0.065
4,GEEMDTAEIARQVKEQLIKDNIGQRIFGHYVLGLSQGSVSEILARPKPWNKLTVRGKEPFHKMKQFLSDEQNILALRSIQGR,-0.722 ± 0.073
5,GEEMDTAEIARQVKEQLIKENIGQRIFGHYVLGLSQGSVSEILARPKPWNKLTVRGKEPFHKMKQFLSDEQNILALRSIQGR,-0.503 ± 0.036
6,GEEMDTAEIARQVKEQLIKFNIGQRIFGHYVLGLSQGSVSEILARPKPWNKLTVRGKEPFHKMKQFLSDEQNILALRSIQGR,-0.029 ± 0.091
7,GEEMDTAEIARQVKEQLIKGNIGQRIFGHYVLGLSQGSVSEILARPKPWNKLTVRGKEPFHKMKQFLSDEQNILALRSIQGR,-0.584 ± 0.026
8,GEEMDTAEIARQVKEQLIKINIGQRIFGHYVLGLSQGSVSEILARPKPWNKLTVRGKEPFHKMKQFLSDEQNILALRSIQGR,-0.601 ± 0.14
9,GEEMDTAEIARQVKEQLIKKNIGQRIFGHYVLGLSQGSVSEILARPKPWNKLTVRGKEPFHKMKQFLSDEQNILALRSIQGR,-0.391 ± 0.041
10,GEEMDTAEIARQVKEQLIKLNIGQRIFGHYVLGLSQGSVSEILARPKPWNKLTVRGKEPFHKMKQFLSDEQNILALRSIQGR,-0.361 ± 0.036
11,GEEMDTAEIARQVKEQLIKNNIGQRIFGHYVLGLSQGSVSEILARPKPWNKLTVRGKEPFHKMKQFLSDEQNILALRSIQGR,-0.178 ± 0.056
12,GEEMDTAEIARQVKEQLIKPNIGQRIFGHYVLGLSQGSVSEILARPKPWNKLTVRGKEPFHKMKQFLSDEQNILALRSIQGR,-0.677 ± 0.062
13,GEEMDTAEIARQVKEQLIKRNIGQRIFGHYVLGLSQGSVSEILARPKPWNKLTVRGKEPFHKMKQFLSDEQNILALRSIQGR,-0.464 ± 0.028
14,GEEMDTAEIARQVKEQLIKSNIGQRIFGHYVLGLSQGSVSEILARPKPWNKLTVRGKEPFHKMKQFLSDEQNILALRSIQGR,-0.398 ± 0.037
15,GEEMDTAEIARQVKEQLIKTNIGQRIFGHYVLGLSQGSVSEILARPKPWNKLTVRGKEPFHKMKQFLSDEQNILALRSIQGR,-0.608 ± 0.05
16,GEEMDTAEIARQVKEQLIKVNIGQRIFGHYVLGLSQGSVSEILARPKPWNKLTVRGKEPFHKMKQFLSDEQNILALRSIQGR,-0.6 ± 0.038
17,GEEMDTAEIARQVKEQLIKWNIGQRIFGHYVLGLSQGSVSEILARPKPWNKLTVRGKEPFHKMKQFLSDEQNILALRSIQGR,-0.074 ± 0.029
18,GEEMDTAEIARQVKEQLIKHAIGQRIFGHYVLGLSQGSVSEILARPKPWNKLTVRGKEPFHKMKQFLSDEQNILALRSIQGR,-0.151 ± 0.027
19,GEEMDTAEIARQVKEQLIKHCIGQRIFGHYVLGLSQGSVSEILARPKPWNKLTVRGKEPFHKMKQFLSDEQNILALRSIQGR,-0.181 ± 0.048
20,GEEMDTAEIARQVKEQLIKHDIGQRIFGHYVLGLSQGSVSEILARPKPWNKLTVRGKEPFHKMKQFLSDEQNILALRSIQGR,-0.03 ± 0.05
21,GEEMDTAEIARQVKEQLIKHEIGQRIFGHYVLGLSQGSVSEILARPKPWNKLTVRGKEPFHKMKQFLSDEQNILALRSIQGR,-0.04 ± 0.028

# From the Human Domainome abundance scans (Beltran et al. 2025)
